Among the data in article PMC10219423, “Characterization of a New Thermostable and Organic Solution-Tolerant Lipase from Pseudomonas fluorescens and Its Application in the Enrichment of Polyunsaturated Fatty Acids” (International Journal of Molecular Sciences, 2023) are Km values, retold here.

The term Km denotes the concentration of substrate that gives half-maximal velocity.

In the data set the test system is CCCCCCCC(=O)Oc1ccc([N+](=O)[O-])cc1. Nature of the data set: purified protein. The class given is biochemical, Pseudomonas fluorescens. To be noted: Tris-HCl 50 mM, pH 8.0, 40 °C, ethanol and acetonitrile present, 0.01-2.0 mM substrate.

Turning to LipB (Pseudomonas fluorescens), the Km was 0.81 mM.
